In article PMC3899335, “ParABS System in Chromosome Partitioning in the Bacterium Myxococcus xanthus”:

Biological target: T1, ParB (Myxococcus xanthus DK1050, UniProt Q1CVJ4 1-296)
T1 sequence: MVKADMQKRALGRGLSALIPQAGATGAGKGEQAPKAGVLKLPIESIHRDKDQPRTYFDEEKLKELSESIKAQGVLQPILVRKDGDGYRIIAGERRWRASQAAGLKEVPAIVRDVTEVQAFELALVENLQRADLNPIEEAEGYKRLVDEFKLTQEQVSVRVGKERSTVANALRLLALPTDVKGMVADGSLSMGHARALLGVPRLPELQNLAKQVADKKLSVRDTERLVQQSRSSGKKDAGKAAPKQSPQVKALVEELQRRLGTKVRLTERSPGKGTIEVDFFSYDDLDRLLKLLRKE
Assay: EMSA (polyacrylamide); single retarded band up to highest ParB; 40 mM Na-phosphate pH 8, 20 mM NaCl, 7% glycerol, 20 ug/ml BSA, 100 ug/ml sheared salmon sperm DNA, 30 C (30 min agarose, 1 h polyacrylamide); gels run at 4 C
Conditions: protein: recombinant; tags: intein-chitin tag (pTYB12) removed by on-column DTT cleavage; chain copies: 2; label: 32P 5' end; blunt

B1: parS 50 bp consensus (dsDNA)
DNA 1: ACTCACTCATGGCCTCCGTGTTCCACGTGGAACGAAGGATGACTCGAGCA
DNA 2: TGCTCGAGTCATCCTTCGTTCCACGTGGAACACGGAGGCCATGAGTGAGT
B1: binds.
